Patent publication US20250147051A1, “METHOD FOR DETECTING A TAU PROTEIN IN A SALIVA SAMPLE” (GTINVENT LIMITED, priority 2022, published 2025)

Experiments:
dGA = dGA (Homo sapiens, UniProt P10636); experiment: Biacore X100 SPR binding kinetics of anti-tau scAbs (scAb captured via HuCk), analyte dGA; details: lead scAbs
Method: (§1) Surface plasmon resonance (SPR) is widely regarded as the gold standard for real time measurement of protein-protein interactions such as antibody binding. All SPR experiments were carried out using a Biacore X100 machine and HBS EP+ running buffer (GE Healthcare). A ‘capture’ method was followed for affinity measurements, where an anti-human constant kappa chain (HuCk) antibody was conjugated to the surface of a CM5 sensor chip using an amine coupling kit and scAb molecules were immobilised via their HuCk domain. Amine coupling is a very common approach for immobilising the ligand to the chip surface. The chip surface has a dextran matrix derivatised with carboxyl groups, which after activation with N-hydroxysuccinimide (NHS) and 1-ethyl-3-(3-dimethylaminopropyl) carbodiimide (EDC), form reactive succinimide esters which allows the covalent capturing of the ligand via any available primary amine groups (e.g. Lysine) on the ligand (in this case anti-HuCk antibody). The capture antibody was diluted 1/100 in 10 mM Sodium acetate buffer pH 5.0 and passed over the activated chip surface for a period of at least 420 s. Final ligand immobilisation levels over 12,000 RU were deemed to be satisfactory.
(§2) Following immobilisation, the level of each scAb to be captured was identified using the standard SPR equation with a theoretical RMax of 100 RU. Analyte MW refers to the molecular weight of hT40 or dGA/dGAE molecules, while ligand MW refers to the molecular weight of the scAbs tested. RLis the desired capture level and S refers to the stoichiometric ratio:
(§3) The scAb to be tested was added only to flow cell 2 so that flow cell 1 could act as a control to subtract any interaction with the analyte and the chip surface. Both single and multi-cycle runs were utilised using wizards developed in the Biacore X100 control software which are both accepted methods of kinetic analysis (Karlsson, R., et al. Analyzing a kinetic titration series using affinity biosensors (2006) Analytical Biochemistry 349:136-47). The multi-cycle protocol was as follows-Three start-up cycles composed of an initial capture, to the desired level, of the scAb to be tested was performed followed by a 30 s injection of glycine buffer pH 2.0 after each cycle to regenerate the chip surface. The regeneration step removed any captured scAb whilst leaving the capture antibody intact and able to repeat the capture for the next cycle. Following three start-up cycles increasing concentrations (0.15625 nM-100 nM) of the target to be tested were added to the chip surface after the desired scAb capture. The target was added for a 120 s association period and 420 s dissociation period followed by another regeneration, 30 s injection of glycine buffer pH 2.0 in between each cycle.
The single cycle kinetics protocol was similar and utilised the same level of scAb capture. Three start-up cycles were used followed by 5 increasing concentrations of the analyte (6.25 nM-100 nM) for an association period of 120 s followed by a dissociation period of 420 s for each concentration. In single cycle kinetics the regeneration step was performed only after the final analyte concentration was added. Binding responses were analysed in Biacore X100 evaluation software and data fitted to a 1:1 binding model to obtain kinetic and affinity characterisation.

hT40 [1] = experiment: Binding ELISA with truncated tau proteins and 13mer peptide libraries for epitope mapping of anti-tau scAbs; parameters: species or system human; details: residue numbers of hT40
Method: A series of binding ELISA was performed using various truncated versions of the tau protein and 13mer peptide libraries spanning the entire hT40 molecule for mapping the epitopes of anti-tau scAbs (Full list of protein antigens used is given in Table 14). In general, ELISA plates were coated with 1 μg/ml hT40 or dGA or dGAE or other truncated versions of the protein and in the case of biotinylated peptides, plates were coated with 5 μg/ml Streptavidin followed by 1 μg/ml biotinylated peptide. The plates were blocked with 2% MPBS and scAb samples added at desired starting concentrations and double diluted across the plate. Binding was detected using anti-Human C Kappa HRP conjugated secondary antibody and the resulting immunoreaction was developed and absorbance values measured as described above.
Selected E specific scAbs and their specific binding to dGAE is shown below (FIG. 8A-E).
Similarly, dGA binding ‘NS’, ‘S’ and ‘M’ group scAbs were subjected to further antigen binding ELISA using shorter tau proteins and biotinylated 13mer peptides as shown below (FIG. 10A-F) and (FIG. 11A-R).

tau protein = experiment: Capture ELISA of transgenic mouse brain lysates; details: S1D12 mAb capture, label = detection scAb, WT, L1, L66+/- and L66+/+
Method: Mouse brain lysates were prepared from wildtype, Line 1, Line 66+/+ and Line 66+/− (Melis et al., 2015, all surplus from Charles River, part of study R0144). All animals were female, 7-8 months old except Line 66+/+ which were 5 months old. […] The L1 cDNA construct (FIG. 23) contains human tau cDNA coding for amino acid residues 296-390 with a signal sequence and related sequences in a murine Thy-1 expression cassette. For brain lysate preparation, half brains were sectioned into four and the individual sections were homogenised in 400 μl of ice cold RIPA buffer (Cell signalling Technology) containing protease and phosphatase inhibitors. Total protein concentrations for individual samples were established by BCA-assay and each sample was subsequently diluted to 1 mg/ml for future experiments.
For capture ELISA, 100 μL S1D12 capture mAb was used to coat a nunc 96 well Maxisorp plate at 1 μg/ml and incubated for 1 hour at 37° C. Plate was washed as previously and then blocked for 1 hour at 37° C. in 2% MPBS. Brain homogenate samples (50 ng total protein) from each mouse type were added to the first wells and double diluted across the plate in PBS. These samples were left to incubate at RT for 1 hour. Various detection scAbs encompassing epitopes of interest were then added to the plate at 1 μg/ml and incubated for 1 h at RT. Secondary antibody used was anti-HuCk HRP and the assays were developed as described previously. Using S1D12 mAb capture and two separate scAb detectors, S-1G2 (FIG. 24A) and C-B7 (FIG. 24B), it was possible to differentiate between L1 and L66 samples and the wild type.

tau [2] = experiment: Capture ELISA of transgenic mouse plasma; details: Line66 transgenic model; detection scAb with S1D12 mAb capture
Method: Plasma samples from WT, L1, L66+/− and L66+/+ of various ages (1.5-9 months) were taken as described. Mice were terminally anaesthetized using an overdose of sodium pentobarbital and blood was collected through cardiac puncture through a Plastipak syringe pre-rinsed with heparinised saline heparin (10 U/ml) (Heparin sodium salt; Sigma-Aldrich) and transferred into a plastic vial containing lithium heparin anticoagulant (Sarstedt Ltd.) Blood samples, kept on ice for no more than 30 minutes, were centrifuged to obtain plasma at 2000×g for 5 minutes at 6° C. Plasma samples were stored at −20° C.
For mouse plasma capture ELISA, 100 μL capture mAb was coated to the bottom of a black nunc 96 well ‘maxisorp’ plate at 2.5 μg/ml and incubated for 1 hour at 37° C. After washing and blocking as normal, several known standard solutions were set up in triplicate starting at 20 ng/ml of the desired protein before double diluted in the remaining wells. Mouse samples were added to wells in duplicate with a blank in between each sample group. Line1 plasma was diluted 1:10 before addition to plate to account for its high concentration while other samples were diluted 1:2 to account for potential matrix effects. […] The ELISA was developed using SuperSignal ELISA Femto Substrate (Thermo Scientific) and total luminescence was read on Clariostar Plus plate reader (BMG Labtech). […]

tau [3] = experiment: Western blot of mouse brain homogenates (WT, L66+/+, L1+/+); details: 20 μg brain homogenate protein, 5-month-old WT, L1+/+ mice
Method: Protein equivalent to 20 μg from each brain extract was separated using 4-20% bis-tris gels and run in 1×MES buffer. […] A clear band is visible in the lanes containing L66^+/+ samples, but no other bands are detectable (WT or L1^+/+). […] Once again, a band having relative mobility of 65 kDa is visible in the L66 sample with no other reactive bands present.
This band most likely corresponds to endogenous mouse tau which is of a similar size. In the L66^+/+ samples, a second band running at approximately 68 kDa is also detected. The presence of numerous other bands indicates proteolytic truncation of tau within brain homogenates.

hT40 [4] = biological target: hT40 (Homo sapiens, UniProt P10636); experiment: Biacore X100 SPR binding kinetics of anti-tau scAbs (scAb captured via HuCk), analyte hT40; details: lead scAbs, Table 23
Method: as §1, with “The chip surface has a dextran matrix derivatised with carboxyl groups, which after activation with N-hydroxysuccinimide (NHS) and 1-ethyl-3-(3-dimethylaminopropyl) carbodiimide (EDC), form reactive succinimide esters which allows the covalent capturing of the ligand via any available primary amine groups (e.g. Lysine) on the ligand (in this case anti-HuCk antibody).” left out
Following immobilisation, the level of each scAb to be captured was identified using the standard SPR equation with a theoretical RMax of 100 RU. Analyte MW refers to the molecular weight of hT40 or dGA/dGAE molecules, while ligand MW refers to the molecular weight of the scAbs tested. […]
(§4) The single cycle kinetics protocol was similar and utilised the same level of scAb capture. […] Binding responses were analysed in Biacore X100 evaluation software and data fitted to a 1:1 binding model to obtain kinetic and affinity characterisation.

dGAE = dGAE (Homo sapiens, UniProt P10636); experiment: Biacore X100 SPR binding kinetics of anti-tau scAbs (scAb captured via HuCk), analyte dGAE; details: lead scAbs
Method: as §1, §2
as §3, with “Following three start-up cycles increasing concentrations (0.15625 nM-100 nM) of the target to be tested were added to the chip surface after the desired scAb capture. The target was added for a 120 s association period and 420 s dissociation period followed by another regeneration, 30 s injection of glycine buffer pH 2.0 in between each cycle.” left out
as §4

dGAE, sequence (P10636 614-708): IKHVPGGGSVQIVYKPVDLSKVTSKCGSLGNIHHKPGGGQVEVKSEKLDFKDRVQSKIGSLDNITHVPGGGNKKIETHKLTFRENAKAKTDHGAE
dGA, sequence (P10636 614-707): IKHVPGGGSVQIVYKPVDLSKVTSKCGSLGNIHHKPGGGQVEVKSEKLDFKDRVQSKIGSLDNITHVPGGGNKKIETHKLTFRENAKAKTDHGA
hT40 (Homo sapiens, UniProt P10636), sequence (P10636 1-441 isoform P10636-8): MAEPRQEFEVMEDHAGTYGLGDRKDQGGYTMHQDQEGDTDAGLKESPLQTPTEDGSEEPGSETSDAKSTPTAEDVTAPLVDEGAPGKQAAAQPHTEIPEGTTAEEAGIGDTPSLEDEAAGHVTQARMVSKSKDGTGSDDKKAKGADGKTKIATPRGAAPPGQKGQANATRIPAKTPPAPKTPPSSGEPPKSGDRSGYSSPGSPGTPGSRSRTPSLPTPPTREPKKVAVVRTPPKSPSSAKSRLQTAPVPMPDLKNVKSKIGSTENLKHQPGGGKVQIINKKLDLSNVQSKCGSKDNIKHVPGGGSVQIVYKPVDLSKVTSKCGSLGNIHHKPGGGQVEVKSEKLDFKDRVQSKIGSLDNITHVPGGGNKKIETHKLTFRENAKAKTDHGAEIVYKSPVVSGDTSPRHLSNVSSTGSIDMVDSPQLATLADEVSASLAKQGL

B1: CE2: anti-tau clone referred to as CE2 or E1B8, SEQ ID NO: 366 (protein)
scFv: QVQLQESGPSLVKPSQTLSLTCTVSGFSLTNYPVGWVRQAPGKALEWIGNIENDGSANYASALKSRLSITRDTSKNQVSLSLSSATTEDTAVYYCGREFGGSDGYTYFVDIDYWGPGLLVTVSSEGKSSGASGESKVDDQAVLTQPSSVSKSLGQSVSITCSGSSSNVGYGNYVSWFQQVPGSAPKILIYGATSRASGVPDRFSGSRSGNTATLTITSLQAEDEADYYCASYDGSSSGVFGSGTRLTVLG
modifications: CE2/E1B8 amino acid sequence
ka (dGA; Table 24): 137000 M⁻¹ s⁻¹ | dissociation rate constant (kd) (dGA; Table 24, dissociation rate): 0.00242 s⁻¹ | Tau proteins/fragments with positive scAb reactivity (hT40 [1]): 297-390 (dGA), 297-391 and (dGAE), 313-336

B2: CB7: anti-tau clone, SEQ ID NO: 364 (protein)
scFv: QVQLQESGPSLVKPSQTLSLTCTVSGFSLTNYRVGWVRQAPGKALEWVSNIRSGGTTWYNPALKSRLSITADTSKSQVSLSLSSVTTEDTAVYYCARDSSGDLYAYDYWGPGLLVTVSSEGKSSGASGESKVDDQAVLTQPSSVSRSLGQSVSMTCSGSSSNVGYGNYMAWFQQVPGSAPKLLIYGATSRASGVPDRFSGSRSGNTATLTISSLQAEDEADYYCASYDSTSGGVFGSGTRLTVLG
modifications: CB7 amino acid sequence
detection of tau in mouse brain homogenate (tau protein; listed as C-B7 scAb): hT40 tau was specifically detected in L66 samples | detection of tau in mouse brain homogenate (tau protein; listed as CB7 scAb): can specifically detect human tau in Line66 homozygous and heterozygous samples | cross-reaction with endogenous mouse tau protein (tau [2]): does not cross react with endogenous mouse tau protein | Western blot reactivity (tau [3]): specificity for human tau

B3: E2E8: anti-tau clone, SEQ ID NO: 248 (protein)
scFv: QVQLQESGPSLVKPSQTLSLTCTVSGFSLTDRGVAWVRQAPGKALEWVGTMRSGGTIDYNPALKSRLSITRDTSKSQVFLSLSSVTTEDMAMYYCARGYLSGDRYAWGRGLLVTVSSEGKSSGASGESKVDDQAVLTQPSSVSKSLGQSVSIACSGSRSDIGYGNYVSWFQQIPGSAPKLLIYDTNTRASGVPDRFSGARSGNTATLTINSLQAEDEADYYCANIDSSRSHLFGSGTRLTVLG
modifications: E2E8 amino acid sequence
T441 binding (result in words) (hT40 [4]): No T441 binding | ka (dGAE; Table 24): 477000 M⁻¹ s⁻¹ | dissociation rate constant (koff) (dGAE; Table 24, dissociation rate): 0.0001915 s⁻¹
